The test system of this data set is Escherichia coli TOP10. Nature of the data set: shrunken log2 fold change of peptide-encoding DNA abundance (4.5 h post-induction vs induction); higher = less antimicrobial activity (less host growth inhibition). As to conditions: time post-induction: 4.5 h; library: site-saturation at positions 5, 18, 19, 20.
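Also: peptides expressed intracellularly from a pBAD plasmid library in pooled LB shake-flask culture, induced with 0.3% L-arabinose, DNA abundance read by NGS, three biological replicates, DESeq2 with apeglm shrinkage.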

As to RRIRVRPPRLPRPRPRPFMCPRP, the “shrunken log2 fold change” value is -0.325.

For RRIRKRPPRLPRPRPRPSENPRP, the “shrunken log2 fold change” value is 0.101.

In the case of RRIRWRPPRLPRPRPRPRFIPRP, the “shrunken log2 fold change” value is -0.00733.

For the sequence RRIRVRPPRLPRPRPRPIEFPRP, the “shrunken log2 fold change” value was 0.0379.

Take RRIRVRPPRLPRPRPRPSNSPRP: the “shrunken log2 fold change” value is -0.826.

As for RRIRERPPRLPRPRPRPGHGPRP, the “shrunken log2 fold change” value is -0.281.

As to RRIRCRPPRLPRPRPRPFQLPRP, the “shrunken log2 fold change” value was -1.02.

Regarding RRIRMRPPRLPRPRPRPKLRPRP, the “shrunken log2 fold change” value is -0.0111.

Consider RRIRHRPPRLPRPRPRPFVDPRP, for which the “shrunken log2 fold change” value came out at 0.268.

For the sequence RRIRCRPPRLPRPRPRPKGTPRP, the “shrunken log2 fold change” value came to 0.0259.

For RRIRLRPPRLPRPRPRPRMIPRP, the “shrunken log2 fold change” value worked out at 0.119.

As for RRIRRRPPRLPRPRPRPPIAPRP, the “shrunken log2 fold change” value was 0.385.

Turning to RRIRSRPPRLPRPRPRPYKTPRP, the “shrunken log2 fold change” value was -0.0144.

RRIRFRPPRLPRPRPRPFPRPRP: the “shrunken log2 fold change” value is -0.0288.

In the case of RRIRCRPPRLPRPRPRPSYMPRP, the “shrunken log2 fold change” value was -0.646.

With RRIRIRPPRLPRPRPRPPKKPRP, the “shrunken log2 fold change” value was -0.114.

As for RRIRWRPPRLPRPRPRPCHDPRP, the “shrunken log2 fold change” value was determined as 0.0415.

As to RRIRQRPPRLPRPRPRPFWPPRP, the “shrunken log2 fold change” value was 0.083.

Consider RRIRVRPPRLPRPRPRPIFHPRP, for which the “shrunken log2 fold change” value is -0.0258.

Turning to RRIRLRPPRLPRPRPRPEEPPRP, the “shrunken log2 fold change” value is 0.0426.

In the case of RRIRCRPPRLPRPRPRPCASPRP, the “shrunken log2 fold change” value was found to be 0.0454.

For the sequence RRIRFRPPRLPRPRPRPQMSPRP, the “shrunken log2 fold change” value is -0.204.

In the case of RRIRLRPPRLPRPRPRPTMWPRP, the “shrunken log2 fold change” value is 0.145.

Take RRIRMRPPRLPRPRPRPYSFPRP: the “shrunken log2 fold change” value was -0.266.

As to RRIRCRPPRLPRPRPRPRDKPRP, the “shrunken log2 fold change” value amounted to 0.0174.

Take RRIRFRPPRLPRPRPRPWVMPRP: the “shrunken log2 fold change” value was -0.258.

For the sequence RRIRYRPPRLPRPRPRPHVEPRP, the “shrunken log2 fold change” value was determined as 0.0184.

As for RRIRCRPPRLPRPRPRPADTPRP, the “shrunken log2 fold change” value was -0.0286.

Turning to RRIRHRPPRLPRPRPRPIQTPRP, the “shrunken log2 fold change” value is -0.338.

On to RRIRHRPPRLPRPRPRPSAYPRP, for which the “shrunken log2 fold change” value is -0.562.

For the sequence RRIRIRPPRLPRPRPRPYDVPRP, the “shrunken log2 fold change” value is -0.101.

With RRIRVRPPRLPRPRPRPQHKPRP, the “shrunken log2 fold change” value is -0.483.

Consider RRIRDRPPRLPRPRPRPHFIPRP, for which the “shrunken log2 fold change” value is -0.0922.

For RRIRFRPPRLPRPRPRPYVGPRP, the “shrunken log2 fold change” value was -0.108.

In the case of RRIRQRPPRLPRPRPRPRYAPRP, the “shrunken log2 fold change” value stood at 0.0355.

RRIRQRPPRLPRPRPRPMAAPRP: the “shrunken log2 fold change” value was 0.127.

On to RRIRERPPRLPRPRPRPTDKPRP, for which the “shrunken log2 fold change” value is -0.234.

For RRIRRRPPRLPRPRPRPCPNPRP, the “shrunken log2 fold change” value is -0.207.

As to RRIRGRPPRLPRPRPRPCRVPRP, the “shrunken log2 fold change” value was -0.0297.

For RRIRQRPPRLPRPRPRPMWTPRP, the “shrunken log2 fold change” value is 0.158.

For the sequence RRIRIRPPRLPRPRPRPMNSPRP, the “shrunken log2 fold change” value is -0.191.

In the case of RRIRYRPPRLPRPRPRPMKAPRP, the “shrunken log2 fold change” value was -0.000687.

As for RRIRVRPPRLPRPRPRPLNPPRP, the “shrunken log2 fold change” value is -0.113.

In the case of RRIRRRPPRLPRPRPRPRVGPRP, the “shrunken log2 fold change” value was found to be 0.68.

With RRIRRRPPRLPRPRPRPGQMPRP, the “shrunken log2 fold change” value turned out to be 0.0545.

For the sequence RRIRPRPPRLPRPRPRPIECPRP, the “shrunken log2 fold change” value was -0.206.

For RRIRQRPPRLPRPRPRPLHTPRP, the “shrunken log2 fold change” value is 0.0932.

As to RRIRTRPPRLPRPRPRPNQCPRP, the “shrunken log2 fold change” value was found to be 0.00866.

As for RRIRIRPPRLPRPRPRPWYKPRP, the “shrunken log2 fold change” value was -0.689.

Take RRIRRRPPRLPRPRPRPMDRPRP: the “shrunken log2 fold change” value came to 0.118.

As to RRIRVRPPRLPRPRPRPWKNPRP, the “shrunken log2 fold change” value stood at 0.0224.

Consider RRIRHRPPRLPRPRPRPSVQPRP, for which the “shrunken log2 fold change” value was -0.266.

Regarding RRIRERPPRLPRPRPRPKMDPRP, the “shrunken log2 fold change” value was -0.0491.

As for RRIRQRPPRLPRPRPRPETEPRP, the “shrunken log2 fold change” value came to 0.0982.

For the sequence RRIRHRPPRLPRPRPRPILSPRP, the “shrunken log2 fold change” value is -0.0163.

Turning to RRIRCRPPRLPRPRPRPNQLPRP, the “shrunken log2 fold change” value was -0.345.

As to RRIRPRPPRLPRPRPRPFCEPRP, the “shrunken log2 fold change” value came to 0.0972.

For the sequence RRIRMRPPRLPRPRPRPDPMPRP, the “shrunken log2 fold change” value came to 0.501.

In the case of RRIRRRPPRLPRPRPRPDFWPRP, the “shrunken log2 fold change” value turned out to be 0.647.

Regarding RRIRPRPPRLPRPRPRPDQYPRP, the “shrunken log2 fold change” value is -0.114.

As for RRIRVRPPRLPRPRPRPCTTPRP, the “shrunken log2 fold change” value turned out to be 0.167.

Turning to RRIRHRPPRLPRPRPRPHIIPRP, the “shrunken log2 fold change” value was -0.192.

On to RRIRRRPPRLPRPRPRPMALPRP, for which the “shrunken log2 fold change” value was 5.63e-05.

For RRIRARPPRLPRPRPRPGQLPRP, the “shrunken log2 fold change” value is 0.359.

RRIRERPPRLPRPRPRPPQCPRP: the “shrunken log2 fold change” value was -0.302.

RRIRRRPPRLPRPRPRPYLIPRP: the “shrunken log2 fold change” value was -0.082.

For RRIRTRPPRLPRPRPRPGKAPRP, the “shrunken log2 fold change” value was -0.0369.

As for RRIRERPPRLPRPRPRPPGFPRP, the “shrunken log2 fold change” value worked out at 0.479.

Consider RRIRTRPPRLPRPRPRPAEAPRP, for which the “shrunken log2 fold change” value worked out at 0.148.

As for RRIRWRPPRLPRPRPRPWCGPRP, the “shrunken log2 fold change” value was determined as 0.273.

RRIRPRPPRLPRPRPRPRQYPRP: the “shrunken log2 fold change” value is -0.257.

Regarding RRIRTRPPRLPRPRPRPPAWPRP, the “shrunken log2 fold change” value was found to be 0.663.

As to RRIRPRPPRLPRPRPRPDRQPRP, the “shrunken log2 fold change” value was 0.099.

With RRIRGRPPRLPRPRPRPQRYPRP, the “shrunken log2 fold change” value was -0.00818.

As for RRIRSRPPRLPRPRPRPWLSPRP, the “shrunken log2 fold change” value is -0.00679.

As to RRIRLRPPRLPRPRPRPQDCPRP, the “shrunken log2 fold change” value stood at 0.0274.

For RRIRRRPPRLPRPRPRPPHIPRP, the “shrunken log2 fold change” value came out at 0.655.

With RRIRFRPPRLPRPRPRPFMWPRP, the “shrunken log2 fold change” value was -0.168.

With RRIRRRPPRLPRPRPRPSINPRP, the “shrunken log2 fold change” value is -0.13.

For the sequence RRIRDRPPRLPRPRPRPGVEPRP, the “shrunken log2 fold change” value is 0.022.

As to RRIRKRPPRLPRPRPRPTTCPRP, the “shrunken log2 fold change” value came out at 0.273.

With RRIRTRPPRLPRPRPRPFYTPRP, the “shrunken log2 fold change” value was -0.373.

For the sequence RRIRARPPRLPRPRPRPLHWPRP, the “shrunken log2 fold change” value turned out to be 0.387.

In the case of RRIRVRPPRLPRPRPRPDLLPRP, the “shrunken log2 fold change” value was -0.224.

For RRIRNRPPRLPRPRPRPKGQPRP, the “shrunken log2 fold change” value came to 0.0938.

Turning to RRIRNRPPRLPRPRPRPNSDPRP, the “shrunken log2 fold change” value is -0.073.

Take RRIRPRPPRLPRPRPRPQHMPRP: the “shrunken log2 fold change” value was -0.537.

Turning to RRIRVRPPRLPRPRPRPGASPRP, the “shrunken log2 fold change” value turned out to be 0.583.

Take RRIRLRPPRLPRPRPRPEGWPRP: the “shrunken log2 fold change” value is 0.862.

With RRIRPRPPRLPRPRPRPSALPRP, the “shrunken log2 fold change” value is -0.00612.

Turning to RRIRSRPPRLPRPRPRPPPSPRP, the “shrunken log2 fold change” value came out at 0.785.

Consider RRIRARPPRLPRPRPRPSIHPRP, for which the “shrunken log2 fold change” value is -0.233.

Take RRIRNRPPRLPRPRPRPLQQPRP: the “shrunken log2 fold change” value was 0.0184.

For RRIRRRPPRLPRPRPRPCGMPRP, the “shrunken log2 fold change” value worked out at 0.114.

With RRIRMRPPRLPRPRPRPRKQPRP, the “shrunken log2 fold change” value turned out to be 0.938.

Take RRIRIRPPRLPRPRPRPDIAPRP: the “shrunken log2 fold change” value is -0.659.

As for RRIRFRPPRLPRPRPRPFRLPRP, the “shrunken log2 fold change” value was -0.197.

As to RRIRARPPRLPRPRPRPGTPPRP, the “shrunken log2 fold change” value worked out at 0.642.

In the case of RRIRPRPPRLPRPRPRPQHEPRP, the “shrunken log2 fold change” value is -0.146.

For the sequence RRIRQRPPRLPRPRPRPVDHPRP, the “shrunken log2 fold change” value is -0.335.

As for RRIRHRPPRLPRPRPRPSVPPRP, the “shrunken log2 fold change” value was -0.0518.

Turning to RRIRARPPRLPRPRPRPNKRPRP, the “shrunken log2 fold change” value is 0.214.

Turning to RRIRTRPPRLPRPRPRPNRSPRP, the “shrunken log2 fold change” value is -0.069.

For RRIRERPPRLPRPRPRPQVMPRP, the “shrunken log2 fold change” value was -0.303.

In the case of RRIRFRPPRLPRPRPRPQLGPRP, the “shrunken log2 fold change” value was 0.1.

With RRIRMRPPRLPRPRPRPDWVPRP, the “shrunken log2 fold change” value came to 0.0143.

Regarding RRIRKRPPRLPRPRPRPVYAPRP, the “shrunken log2 fold change” value was -0.0576.

RRIRDRPPRLPRPRPRPSVMPRP: the “shrunken log2 fold change” value came to 0.198.

Consider RRIRSRPPRLPRPRPRPAKYPRP, for which the “shrunken log2 fold change” value was -0.215.

As to RRIRVRPPRLPRPRPRPPLNPRP, the “shrunken log2 fold change” value was -0.098.

As for RRIRCRPPRLPRPRPRPVICPRP, the “shrunken log2 fold change” value is -0.241.

On to RRIRHRPPRLPRPRPRPWLDPRP, for which the “shrunken log2 fold change” value was -0.377.

RRIRQRPPRLPRPRPRPCQAPRP: the “shrunken log2 fold change” value was -0.187.

Regarding RRIRPRPPRLPRPRPRPPFWPRP, the “shrunken log2 fold change” value was 0.767.

As for RRIRLRPPRLPRPRPRPMKQPRP, the “shrunken log2 fold change” value turned out to be 0.132.

As to RRIRMRPPRLPRPRPRPIGAPRP, the “shrunken log2 fold change” value came to 0.739.

For RRIRHRPPRLPRPRPRPWNMPRP, the “shrunken log2 fold change” value was -0.14.

Turning to RRIRMRPPRLPRPRPRPIKGPRP, the “shrunken log2 fold change” value is -0.0612.

On to RRIRMRPPRLPRPRPRPKLYPRP, for which the “shrunken log2 fold change” value is 0.256.

Turning to RRIRTRPPRLPRPRPRPCNDPRP, the “shrunken log2 fold change” value was -0.145.

RRIRTRPPRLPRPRPRPHYNPRP: the “shrunken log2 fold change” value was -0.75.

Consider RRIRMRPPRLPRPRPRPVRYPRP, for which the “shrunken log2 fold change” value turned out to be 0.64.

Turning to RRIRCRPPRLPRPRPRPQAIPRP, the “shrunken log2 fold change” value was -0.205.

On to RRIRARPPRLPRPRPRPTKYPRP, for which the “shrunken log2 fold change” value is -0.114.

Take RRIRPRPPRLPRPRPRPCDSPRP: the “shrunken log2 fold change” value is 0.301.

For the origin of these results see the supplement of paper PMC9112550, “Optimization of the antimicrobial peptide Bac7 by deep mutational scanning” (BMC Biology, 2022).
